Measurements published in ChEMBL document CHEMBL1140886, “Development of an optimized activatable MMP-14 targeted SPECT imaging probe” (Bioorg Med Chem, 2009).

Tested on: CC[C@H](C)[C@H](NC(=O)[C@H](CCCNC(=N)N)NC(=O)CNC(=O)[C@@H](N)CO)C(=O)NCC(=O)N[C@@H](Cc1ccccc1)C(=O)N[C@@H](CC(C)C)C(=O)N[C@@H](CCCNC(=N)N)C(=O)N[C@H](C(=O)N[C@@H](C)C(=O)O)[C@@H](C)O
Assay: Ratio of kcat/km for human recombinant MMP14 assessed as drug cleavage

**Q.** Which kcat/Km does the source give for “Matrix metalloproteinase-14 (Homo sapiens) (from UniProt P50281)” here?
**A.** 777000 M⁻¹ s⁻¹
